Measurements: patent publication US9260500B2, “Peptide and use thereof” (Takeda Pharmaceutical Company Limited, priority 2009, dated 2016)
Starred links: 1 amine or outer side, 2 acyl side, 3 side chain; linkers in the order of their positions; H or OH if unused. Non-standard residues stand in square brackets, D forms with d. No end group written: not given here. *: point of attachment. Ala(piperidin-4-yl) = O=C([C@H](CC1CCN([*:3])CC1)N[*:1])[*:2]; Cyclohexanecarbonyl = O=C(C1CCCCC1)*; 4Pal = N[C@@H](Cc1ccncc1)C(=O)O; dHyp = O=C(O)[C@H]1C[C@H](O)CN1; Cha = N[C@@H](CC1CCCCC1)C(=O)O; dIva = CC[C@@](C)(N)C(=O)O; Isobutyryl = CC(C)C(=O)*; Iva = CC[C@](C)(N)C(=O)O; Nle = CCCC[C@H](N)C(=O)O; Orn = NCCC[C@H](N)C(=O)O; Aib = CC(C)(N)C(=O)O; Bz = O=C(c1ccccc1)*

Key:
human Y2 receptor [1] = biological target: T1, human Y2 receptor (Homo sapiens, UniProt P49146); experiment: Receptor Binding Assay (RBA) for Human Y2, [125I]-PYY displacement on hY2R/CHO membrane fraction; details: IC50 of test compound/IC50 of PYY(3-36) (PYY(3-36) taken as 1)
T1 construct: expressed in transfected cells; membrane fraction
T1 sequence (P49146 1-381): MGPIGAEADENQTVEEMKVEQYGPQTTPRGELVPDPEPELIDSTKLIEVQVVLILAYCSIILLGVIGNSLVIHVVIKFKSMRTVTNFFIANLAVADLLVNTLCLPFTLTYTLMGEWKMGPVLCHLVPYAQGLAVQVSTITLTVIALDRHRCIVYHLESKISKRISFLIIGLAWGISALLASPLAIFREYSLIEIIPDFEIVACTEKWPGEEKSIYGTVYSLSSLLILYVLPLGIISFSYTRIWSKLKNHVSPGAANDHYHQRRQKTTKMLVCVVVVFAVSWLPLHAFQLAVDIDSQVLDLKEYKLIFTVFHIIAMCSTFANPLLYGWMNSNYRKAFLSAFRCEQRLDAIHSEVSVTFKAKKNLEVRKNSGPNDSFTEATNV
Summary of the method: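 Read-out is [125I]-PYY displacement from membranes of CHO/dhfr− cells stably transfected with human Y2R. Membranes were obtained by disrupting cells in a buffer of 10 mM NaHCO3, 5 mM EDTA and protease inhibitors.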

human Y2 receptor [2] = biological target: T1, human Y2 receptor; experiment: Human Y2 Receptor G Protein Binding Assay (GBA), [35S]GTPγS; format: biochemical; details: EC50 of test compound/EC50 of PYY(3-36) (PYY3-36 taken as 1), hY2R/CHO membrane fraction
Summary of the method: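 Agonism measured as [35S]GTPγS binding, read by GF/C filtration and scintillation counting after 120 min at room temperature, using human Y2 membranes at 1 μg protein/mL in pH 7.4 Tris/MgCl2/NaCl/GDP buffer. Compound serially diluted 100 μM–1 nM; EC50 normalized to PYY(3-36) (ratio = compound/PYY).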

RBA IC50 Ratio (human Y2 receptor [1])	GBA EC50 Ratio (human Y2 receptor [2])	Substance
3.4	1.1	Ac-[D-Pro24, Pya(4)26, Cha27,36, D-Iva28, Lys30, Iva31]-PYY(23-36) (Ac-S[dP]R[4Pal][Cha][dIva]NK[Iva]TRQR[Cha]-NH2; SMILES CC[C@@](C)(NC(=O)[C@H](CC1CCCCC1)NC(=O)[C@H](Cc1ccncc1)NC(=O)[C@H](CCCNC(=N)N)NC(=O)[C@H]1CCCN1C(=O)[C@H](CO)NC(C)=O)C(=O)N[C@@H](CC(N)=O)C(=O)N[C@@H](CCCCN)C(=O)N[C@@](C)(CC)C(=O)N[C@H](C(=O)N[C@@H](CCCNC(=N)N)C(=O)N[C@@H](CCC(N)=O)C(=O)N[C@@H](CCCNC(=N)N)C(=O)N[C@@H](CC1CCCCC1)C(N)=O)[C@@H](C)O) [compound No. 248]
3.4	2.2	Ac-[Glu23, D-Hyp24, Pya(4)26, Cha27,36, Aib28,31, Lys30]-PYY(23-36) (Ac-E[dHyp]R[4Pal][Cha][Aib]NK[Aib]TRQR[Cha]-NH2; SMILES CC(=O)N[C@@H](CCC(=O)O)C(=O)N1C[C@@H](O)C[C@@H]1C(=O)N[C@@H](CCCNC(=N)N)C(=O)N[C@@H](Cc1ccncc1)C(=O)N[C@@H](CC1CCCCC1)C(=O)NC(C)(C)C(=O)N[C@@H](CC(N)=O)C(=O)N[C@@H](CCCCN)C(=O)NC(C)(C)C(=O)N[C@H](C(=O)N[C@@H](CCCNC(=N)N)C(=O)N[C@@H](CCC(N)=O)C(=O)N[C@@H](CCCNC(=N)N)C(=O)N[C@@H](CC1CCCCC1)C(N)=O)[C@@H](C)O) [compound No. 208]
13	6.0	Benzoyl-[Ser26, Cha27,28,36, Aib31]-PYY(25-36) (Bz-RS[Cha][Cha]NL[Aib]TRQR[Cha]-NH2; SMILES CC(C)C[C@H](NC(=O)[C@H](CC(N)=O)NC(=O)[C@H](CC1CCCCC1)NC(=O)[C@H](CC1CCCCC1)NC(=O)[C@H](CO)NC(=O)[C@H](CCCNC(=N)N)NC(=O)c1ccccc1)C(=O)NC(C)(C)C(=O)N[C@H](C(=O)N[C@@H](CCCNC(=N)N)C(=O)N[C@@H](CCC(N)=O)C(=O)N[C@@H](CCCNC(=N)N)C(=O)N[C@@H](CC1CCCCC1)C(N)=O)[C@@H](C)O) [compound No. 97]
50	33	Cyclohexanecarbonyl-[Nle26, Cha27,28,36, Aib31]-PYY(25-36) (Cyclohexanecarbonyl-R[Nle][Cha][Cha]NL[Aib]TRQR[Cha]-NH2; SMILES CCCC[C@H](NC(=O)[C@H](CCCNC(=N)N)NC(=O)C1CCCCC1)C(=O)N[C@@H](CC1CCCCC1)C(=O)N[C@@H](CC1CCCCC1)C(=O)N[C@@H](CC(N)=O)C(=O)N[C@@H](CC(C)C)C(=O)NC(C)(C)C(=O)N[C@H](C(=O)N[C@@H](CCCNC(=N)N)C(=O)N[C@@H](CCC(N)=O)C(=O)N[C@@H](CCCNC(=N)N)C(=O)N[C@@H](CC1CCCCC1)C(N)=O)[C@@H](C)O) [compound No. 77]
20	2.6	Ac-[D-Pro24, Nle25, Pya(4)26, Cha27,28,36, Aib31]-PYY(23-36) (Ac-S[dP][Nle][4Pal][Cha][Cha]NL[Aib]TRQR[Cha]-NH2; SMILES CCCC[C@H](NC(=O)[C@H]1CCCN1C(=O)[C@H](CO)NC(C)=O)C(=O)N[C@@H](Cc1ccncc1)C(=O)N[C@@H](CC1CCCCC1)C(=O)N[C@@H](CC1CCCCC1)C(=O)N[C@@H](CC(N)=O)C(=O)N[C@@H](CC(C)C)C(=O)NC(C)(C)C(=O)N[C@H](C(=O)N[C@@H](CCCNC(=N)N)C(=O)N[C@@H](CCC(N)=O)C(=O)N[C@@H](CCCNC(=N)N)C(=O)N[C@@H](CC1CCCCC1)C(N)=O)[C@@H](C)O) [compound No. 140]
2.3	1.3	Ac-[Glu23, D-Pro24, Nle25, Pya(4)26, Cha27,28,36, Lys30, Aib31]-PYY(23-36) (Ac-E[dP][Nle][4Pal][Cha][Cha]NK[Aib]TRQR[Cha]-NH2; SMILES CCCC[C@H](NC(=O)[C@H]1CCCN1C(=O)[C@H](CCC(=O)O)NC(C)=O)C(=O)N[C@@H](Cc1ccncc1)C(=O)N[C@@H](CC1CCCCC1)C(=O)N[C@@H](CC1CCCCC1)C(=O)N[C@@H](CC(N)=O)C(=O)N[C@@H](CCCCN)C(=O)NC(C)(C)C(=O)N[C@H](C(=O)N[C@@H](CCCNC(=N)N)C(=O)N[C@@H](CCC(N)=O)C(=O)N[C@@H](CCCNC(=N)N)C(=O)N[C@@H](CC1CCCCC1)C(N)=O)[C@@H](C)O) [compound No. 172]
1.9	2.0	Isobutanoyl-[Glu23, D-Pro24, Pya(4)26, Cha27,36, Aib28,31, Lys30]-PYY(23-36) (Isobutyryl-E[dP]R[4Pal][Cha][Aib]NK[Aib]TRQR[Cha]-NH2; SMILES CC(C)C(=O)N[C@@H](CCC(=O)O)C(=O)N1CCC[C@@H]1C(=O)N[C@@H](CCCNC(=N)N)C(=O)N[C@@H](Cc1ccncc1)C(=O)N[C@@H](CC1CCCCC1)C(=O)NC(C)(C)C(=O)N[C@@H](CC(N)=O)C(=O)N[C@@H](CCCCN)C(=O)NC(C)(C)C(=O)N[C@H](C(=O)N[C@@H](CCCNC(=N)N)C(=O)N[C@@H](CCC(N)=O)C(=O)N[C@@H](CCCNC(=N)N)C(=O)N[C@@H](CC1CCCCC1)C(N)=O)[C@@H](C)O) [compound No. 214]
24	11	Ac-[D-Pro24, Aib25,28,31, Cha27,36, Lys30]-PYY(23-36) (Ac-S[dP][Aib]H[Cha][Aib]NK[Aib]TRQR[Cha]-NH2; SMILES CC(=O)N[C@@H](CO)C(=O)N1CCC[C@@H]1C(=O)NC(C)(C)C(=O)N[C@@H](Cc1c[nH]cn1)C(=O)N[C@@H](CC1CCCCC1)C(=O)NC(C)(C)C(=O)N[C@@H](CC(N)=O)C(=O)N[C@@H](CCCCN)C(=O)NC(C)(C)C(=O)N[C@H](C(=O)N[C@@H](CCCNC(=N)N)C(=O)N[C@@H](CCC(N)=O)C(=O)N[C@@H](CCCNC(=N)N)C(=O)N[C@@H](CC1CCCCC1)C(N)=O)[C@@H](C)O) [compound No. 238]
5.4	2.5	[Lys(Ac)23, D-Pro24, Cha27,28,36, Aib31]-PYY(23-36) (K(Ac)[dP]RH[Cha][Cha]NL[Aib]TRQR[Cha]-NH2; N-terminus assumed; SMILES CC(=O)NCCCC[C@H](N)C(=O)N1CCC[C@@H]1C(=O)N[C@@H](CCCNC(=N)N)C(=O)N[C@@H](Cc1c[nH]cn1)C(=O)N[C@@H](CC1CCCCC1)C(=O)N[C@@H](CC1CCCCC1)C(=O)N[C@@H](CC(N)=O)C(=O)N[C@@H](CC(C)C)C(=O)NC(C)(C)C(=O)N[C@H](C(=O)N[C@@H](CCCNC(=N)N)C(=O)N[C@@H](CCC(N)=O)C(=O)N[C@@H](CCCNC(=N)N)C(=O)N[C@@H](CC1CCCCC1)C(N)=O)[C@@H](C)O) [compound No. 163]
4.2	2.2	Ac-[D-Pro24, Orn26, Cha27,28,36, Aib31]-PYY(23-36) (Ac-S[dP]R[Orn][Cha][Cha]NL[Aib]TRQR[Cha]-NH2; SMILES CC(=O)N[C@@H](CO)C(=O)N1CCC[C@@H]1C(=O)N[C@@H](CCCNC(=N)N)C(=O)N[C@@H](CCCN)C(=O)N[C@@H](CC1CCCCC1)C(=O)N[C@@H](CC1CCCCC1)C(=O)N[C@@H](CC(N)=O)C(=O)N[C@@H](CC(C)C)C(=O)NC(C)(C)C(=O)N[C@H](C(=O)N[C@@H](CCCNC(=N)N)C(=O)N[C@@H](CCC(N)=O)C(=O)N[C@@H](CCCNC(=N)N)C(=O)N[C@@H](CC1CCCCC1)C(N)=O)[C@@H](C)O) [compound No. 150]
0.82	1.4	Ac-[D-Pro24, Har25, Pya(4)26, Cha27,36, Aib28,31, Lys30]-PYY(23-36) [compound No. 289]
4.5	3.7	Ac-[D-Pro24, Iva25, Cha27,28,36, Aib31]-PYY(23-36) (Ac-S[dP][Iva]H[Cha][Cha]NL[Aib]TRQR[Cha]-NH2; SMILES CC[C@](C)(NC(=O)[C@H]1CCCN1C(=O)[C@H](CO)NC(C)=O)C(=O)N[C@@H](Cc1c[nH]cn1)C(=O)N[C@@H](CC1CCCCC1)C(=O)N[C@@H](CC1CCCCC1)C(=O)N[C@@H](CC(N)=O)C(=O)N[C@@H](CC(C)C)C(=O)NC(C)(C)C(=O)N[C@H](C(=O)N[C@@H](CCCNC(=N)N)C(=O)N[C@@H](CCC(N)=O)C(=O)N[C@@H](CCCNC(=N)N)C(=O)N[C@@H](CC1CCCCC1)C(N)=O)[C@@H](C)O) [compound No. 177]
17	11	Ac-[D-Pro24, Pya(4)26, Ala(4Pip)27, Aib28,31, Lys30, Cha36]-PYY(23-36) [compound No. 308] (Ac-S[dP]R[4Pal][Ala(piperidin-4-yl)][Aib]NK[Aib]TRQR[Cha]-NH2; SMILES CC(=O)N[C@@H](CO)C(=O)N1CCC[C@@H]1C(=O)N[C@@H](CCCNC(=N)N)C(=O)N[C@@H](Cc1ccncc1)C(=O)N[C@@H](CC1CCNCC1)C(=O)NC(C)(C)C(=O)N[C@@H](CC(N)=O)C(=O)N[C@@H](CCCCN)C(=O)NC(C)(C)C(=O)N[C@H](C(=O)N[C@@H](CCCNC(=N)N)C(=O)N[C@@H](CCC(N)=O)C(=O)N[C@@H](CCCNC(=N)N)C(=O)N[C@@H](CC1CCCCC1)C(N)=O)[C@@H](C)O)
